According to patent US20220251159A1:

Target: fluorescently labeled WTp53DBD (MST assay) (UniProt P04637)
Assay: MST; FIG. 3D; myristoylated

Sequence of fluorescently labeled WTp53DBD (MST assay) (P04637 94-312): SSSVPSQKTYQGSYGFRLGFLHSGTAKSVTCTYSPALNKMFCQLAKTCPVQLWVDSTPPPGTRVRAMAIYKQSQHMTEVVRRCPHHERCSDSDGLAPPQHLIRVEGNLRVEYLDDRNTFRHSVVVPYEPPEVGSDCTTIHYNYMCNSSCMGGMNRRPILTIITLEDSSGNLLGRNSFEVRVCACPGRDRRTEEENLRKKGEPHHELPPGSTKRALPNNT

Kd: 30 µM
Substance: pCAP-402 myr-HSTPHPD
